The source of these data is publication PMC11864197 (Science Advances, 2025).

Data set [1] concerns the molecule itself. In words: multiple angle light scattering.
Data set [2] addresses Full-length DDB1-DET1-DDA1 complex co-expressed with Ube2e2 (human, UniProt Q7L5Y6;Q16531;Q9BW61). Description: SEC.
The next data set has as its target DDA1 (human, UniProt Q9BW61 1-102). In words: cryo-EM structure.

Sequence of Full-length DDB1-DET1-DDA1 complex co-expressed with Ube2e2 (Q7L5Y6 whole entry, one chain of several): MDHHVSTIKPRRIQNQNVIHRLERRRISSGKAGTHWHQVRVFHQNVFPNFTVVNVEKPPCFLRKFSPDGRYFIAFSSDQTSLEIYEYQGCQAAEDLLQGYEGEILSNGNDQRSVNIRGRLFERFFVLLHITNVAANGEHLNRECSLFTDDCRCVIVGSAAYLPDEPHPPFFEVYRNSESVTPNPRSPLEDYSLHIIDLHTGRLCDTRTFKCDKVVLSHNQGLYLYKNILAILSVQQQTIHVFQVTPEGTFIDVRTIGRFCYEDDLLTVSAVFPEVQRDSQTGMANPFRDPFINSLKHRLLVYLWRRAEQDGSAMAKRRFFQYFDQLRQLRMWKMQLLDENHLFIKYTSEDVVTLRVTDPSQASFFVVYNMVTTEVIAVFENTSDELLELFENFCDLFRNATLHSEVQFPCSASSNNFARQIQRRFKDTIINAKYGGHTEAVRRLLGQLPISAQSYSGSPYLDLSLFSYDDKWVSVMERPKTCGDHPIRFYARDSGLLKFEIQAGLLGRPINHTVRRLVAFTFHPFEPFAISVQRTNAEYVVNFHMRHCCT

B1: COP1 RING domain (residues 126 to 208) (domain or fragment)
chain: SYEDKSNDFVCPICFDMIEEAYMTKCGHSFCYKCIHQSLEDNNRCPKCNYVVDNIDHLYPNFLVNELILKQKQRFEEKRFKLD
What is called stoichiometry N is the number of molecules, sites or subunits per partner or assembly. As to B1, the “stoichiometry N” value in data set [1] came out at 2.

B2: Full-length Ube2e2 co-expressed with the DDD complex (enzyme)
chain: MSTEAQRVDDSPSTSGGSSDGDQRESVQQEPEREQVQPKKKEGKISSKTAAKLSTSAKRIQKELAEITLDPPPNCSAGPKGDNIYEWRSTILGPPGSVYEGGVFFLDITFSPDYPFKPPKVTFRTRIYHCNINSQGVICLDILKDNWSPALTISKVLLSICSLLTDCNPADPLVGSIATQYMTNRAEHDRMARQWTKRYAT
Take B2: the binding result in data set [2] is “binds”.

B3: DDB1(ΔBPB) (natural protein)
chain: MSYNYVVTAQKPTAVNGCVTGHFTSAEDLNLLIAKNTRLEIYVVTAEGLRPVKEVGMYGKIAVMELFRPKGESKDLLFILTAKYNACILEYKQSGESIDIITRAHGNVQDRIGRPSETGIIGIIDPECRMIGLRLYDGLFKVIPLDRDNKELKAFNIRLEELHVIDVKFLYGCQAPTICFVYQDPQGRHVKTYEVSLREKEFNKGPWKQENVEAEASMVIAVPEPFGGAIIIGQESITYHNGDKYLAIAPPIIKQSTIVCHNRVDPNGSRYLLGDMEGRLFMLLLEKEEQMDGTVTLKDLRVELLGETSIAECLTYLDNGVVFVGSRLGDSQLVKLNVDSNEQGSYVVAMETFTNLGPIVDMCVVDLERQGQGQLVTCSGAFKEGSLRIIRNGIGIQKLHIRTVPLYESPRKICYQEVSQCFGVLSSRIEVQDTSGGTTALRPSASTQALSSSVSSSKLFSSSTAPHETSFGEEVEVHNLLIIDQHTFEVLHAHQFLQNEYALSLVSCKLGKDPNTYFIVGTAMVYPEEAEPKQGRIVVFQYSDGKLQTVAEKEVKGAVYSMVEFNGKLLASINSTVRLYEWTTEKELRTECNHYNNIMALYLKTKGDFILVGDLMRSVLLLAYKPMEGNFEEIARDFNPNWMSAVEILDDDNFLGAENAFNLFVCQKDSAATTDEERQHLQEVGLFHLGEFVNVFCHGSLVMQNLGETSTPTQGSVLFGTVNGMIGLVTSLSESWYNLLLDMQNRLNKVIKSVGKIEHSFWRSFHTERKTEPATGFIDGDLIESFLDISRPKMQEVVANLQYDDGSGMKREATADDLIKVVEELTRIH
For B3, the binding result with DDA1 is reported as “binds”.
